This test deals with Recombinant human PTEN protein (human, UniProt P60483 1-403 (dog entry), limits assumed). In words: cell-based or functional assay.
Recombinant human PTEN protein, sequence (P60483 whole entry): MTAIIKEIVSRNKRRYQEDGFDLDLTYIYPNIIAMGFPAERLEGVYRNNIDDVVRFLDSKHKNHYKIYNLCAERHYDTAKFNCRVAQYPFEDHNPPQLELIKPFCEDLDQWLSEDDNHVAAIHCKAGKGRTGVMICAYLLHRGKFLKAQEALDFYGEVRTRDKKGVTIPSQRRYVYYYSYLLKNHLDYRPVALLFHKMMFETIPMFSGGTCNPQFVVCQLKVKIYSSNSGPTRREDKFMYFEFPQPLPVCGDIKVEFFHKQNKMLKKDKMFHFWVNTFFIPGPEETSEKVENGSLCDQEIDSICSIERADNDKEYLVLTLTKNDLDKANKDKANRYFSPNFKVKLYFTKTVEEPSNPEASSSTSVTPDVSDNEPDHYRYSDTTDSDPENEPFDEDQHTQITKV

With RRRRRRRRHYRYVDTTDVDPENEPFDEDQHTQITKV (C-terminal amide) [TGN-3 peptide], the “IC50, in vitro PTEN activity assay (lipid phosphatase, C8-PIP3 liposomes, Malachite Green)” value is 87.1 µM and the “PTEN activity remaining with 10 µM peptide, compared with positive control (in vitro PTEN activity assay)” value was 86%.

B1: TGN-2 peptide (peptide)
peptide: RRRRRRRRHYRYSDTTDSDPENEPFDEDQHTQITKV
modifications: two phosphorylated Serine residues (pS; PTEN Ser380 and Ser385 = peptide positions 13 and 18); C-terminal amide
On to B1, for which the “PTEN activity remaining with 10 µM peptide, compared with positive control (in vitro PTEN activity assay)” value was determined as 31%.

B2: TGN-1 peptide (peptide)
peptide: RRRRRRRRVTPDVSDNEPDHYRYSDTTDSDPE
modifications: three phosphorylated Serine residues (pS; PTEN Ser370, Ser380 and Ser385 = peptide positions 14, 24 and 29); C-terminal amide
As for B2, the “PTEN activity remaining with 10 µM peptide, compared with positive control (in vitro PTEN activity assay)” value worked out at 54%.

(Values after patent US20240115668A1 (KOLON TISSUEGENE, published 2024).)
